Data published in publication PMC12005765 (Advanced Science, 2025).

Experiments:
[1] = target: CD3 epsilon-delta heterodimeric protein (Acro Biosystems) (Homo sapiens (assumed)) (UniProt P07766); assay: SPR; IgGs or Fc fusions captured on antihuman Fc polyclonal antibodies amine-coupled to a CM5 chip; spike trimer or CD3 epsilon-delta heterodimer injected; blank flow cell subtracted; 1:1 Langmuir model, simultaneous global fit of ka and kd, KD = kd/ka; BIAcore 2000 (methods) or BIAcore T100 (footnote of Table S3)
[2] = target: T1, CD3 epsilon-delta heterodimeric protein (Acro Biosystems) (Homo sapiens (assumed), UniProt P07766;P04234); assay: as above; settings: both partners purified
T1 construct: also called recombinant CD3delta epsilon; CD3delta-epsilon
T1 sequence (P07766 23-126, stated change not applied, chain 1 of 2): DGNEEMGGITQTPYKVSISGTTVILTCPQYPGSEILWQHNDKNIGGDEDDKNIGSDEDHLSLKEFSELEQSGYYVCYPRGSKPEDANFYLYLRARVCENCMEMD
T1 sequence (P04234 22-171, stated change not applied, chain 2 of 2): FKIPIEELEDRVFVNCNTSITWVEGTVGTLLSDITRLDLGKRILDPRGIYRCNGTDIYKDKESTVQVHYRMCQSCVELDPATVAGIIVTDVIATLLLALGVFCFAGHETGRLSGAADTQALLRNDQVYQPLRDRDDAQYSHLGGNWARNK

Sequence of SC02, anti-S/CD3 bispecific CrossMab from CV3-25/UCHT1 (bispecific antibody) (P07766 23-126): as the sequence (P07766 23-126, stated change not applied, chain 1 of 2) above
Sequence of SC02, anti-S/CD3 bispecific CrossMab from CV3-25/UCHT1 (bispecific antibody) (P04234 22-171, further chain): as the sequence (P04234 22-171, stated change not applied, chain 2 of 2) above

| Molecule | Kd [1] [nM] | koff [1] [s⁻¹] | kon [1] [M⁻¹ s⁻¹] | Kd [2] [nM] |
| --- | --- | --- | --- | --- |
| SC02, anti-S/CD3 bispecific CrossMab from CV3-25/UCHT1 (bispecific antibody) | 0.29 | 0.000285 | 974000 | – |
| humanized UCHT1 (anti-CD3) (antibody, V domains shown, also called anti-CD3 antibody) VH: EVQLVESGGGLVQPGGSLRLSCAASGYSFTGYTMNWVRQAPGKGLEWVALINPYKGVSTYNQKFKDRFTISVDKSKNTAYLQMNSLRAEDTAVYYCARSGYYGDSDWYFDVWGQGTLVTVSS VL: DIQMTQSPSSLSASVGDRVTITCRASQDIRNYLNWYQQKPGKAPKLLIYYTSRLESGVPSRFSGSGSGTDYTLTISSLQPEDFATYYCQQGNTLPWTFGQGTKVEIK | – | – | – | 0.16 |
